From patent CN117843802A (BEILAI PHARMACEUTICAL CO LTD, dated 2024)

What was measured:
Human IL-17A蛋白 = target: T1, Human IL-17A蛋白 (Human, UniProt Q16552 24-155); assay: cell-based or functional assay
T1 sequence (looked up): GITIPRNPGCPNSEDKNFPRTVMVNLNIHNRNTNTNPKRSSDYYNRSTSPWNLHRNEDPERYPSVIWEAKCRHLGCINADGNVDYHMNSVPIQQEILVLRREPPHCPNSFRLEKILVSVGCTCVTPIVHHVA

[1] = target: T2, Human IL-17A重组蛋白 (IL-17A-His) (Human, UniProt Q16552 24-155, biotinylated (Biotin-IL-17A-His) in the ELISA of paragraph 259; site not stated); assay: ELISA: antibody coated at 2 ug/mL, Biotin-IL-17A-His titrated from 10 ug/mL (5-fold, 7 points), HRP-Streptavidin
T2 construct: Recombinant antigen expressed in E. coli BL21 from pET28a, purified on a nickel column; also called IL-17A抗原蛋白; IL-17抗原
T2 sequence: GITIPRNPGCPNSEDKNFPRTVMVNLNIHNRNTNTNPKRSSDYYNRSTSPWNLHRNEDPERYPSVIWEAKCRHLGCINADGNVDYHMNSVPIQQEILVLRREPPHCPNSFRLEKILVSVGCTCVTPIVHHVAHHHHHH

IC50, luciferase activity of 293F-IL-17RA-IL-17Rc-ACT1-NFκB-Luc reporter cells (Human IL-17A蛋白): 1.36 µg/mL
EC50 [1]: 10.1 µg/mL
B1: Ixekizumab (antibody, human IgG4 S228P, kappa, V domains shown)
VH: QVQLVQSGAEVKKPGSSVKVSCKASGYSFTDYHIHWVRQAPGQGLEWMGVINPMYGTTDYNQRFKGRVTITADESTSTAYMELSSLRSEDTAVYYCARYDYFTGTGVYWGQGTLVTVSS
VL: DIVMTQTPLSLSVTPGQPASISCRSSRSLVHSRGNTYLHWYLQKPGQSPQLLIYKVSNRFIGVPDRFSGSGSGTDFTLKISRVEAEDVGVYYCSQSTHLPFTFGQGTKLEIKR
notes: Made in-house: variable regions cloned into pcDNA3.4-hIgG4 and pcDNA3.4-hIgKc, expressed in 293F cells, purified on Protein A; also called 阳性对照抗体; 阳性抗体
